Test results reported in IntAct's records for PubMed 30017192.

Assays:
kpca_human PRKCA = kpca_human PRKCA (UniProt P17252)
kapca_human PRKACA = kapca_human PRKACA (UniProt P17612)

In the case of “Serine/threonine-protein kinase pim-1 (Homo sapiens), P11309-2 K158R”, the “effect of a mutation on the interaction” value (kpca_human PRKCA) was “with no effect” and the “effect of a mutation on the interaction” value (kapca_human PRKACA) was “with no effect”.
